Test results as given in patent publication US20110142849A1 (IRM, published 2011).

Columns and labels:
Test in all cases: specificity ELISA on coated antigen (88 ng per well), antibody at 2 µg/mL, ABS650
hGITR = target: T1, hGITR (human, UniProt Q9Y5U5)
T1 construct: panel antigen of the specificity ELISA
T1 sequence (antigen, looked up): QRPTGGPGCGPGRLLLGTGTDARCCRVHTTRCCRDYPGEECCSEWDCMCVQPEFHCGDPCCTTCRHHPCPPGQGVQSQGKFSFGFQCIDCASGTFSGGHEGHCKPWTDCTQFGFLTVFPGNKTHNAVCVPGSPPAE
Procedure: (§1) For specificity ELISAs on purified human and mouse IgGs, a 384-well plate was coated with a panel of purified human or mouse antigens at 88 ng per well and incubated overnight at 4° C. The plate was blocked and washed as described above, then 22 μL of purified mouse or human anti-PCSK9 antibody diluted to 2 μg/mL in PBS was added to each well. The plate was incubated for 1 hr at 37° C. then washed with PBST. Anti-mouse Fc antibody (Jackson ImmunoResearch Labs #115-035-071) or anti-human kappa antibody (Sigma #A7164) conjugated to HRP was diluted 1:5000 in PBS (25 μL) and added to each well. The plate was incubated for 1 hr at room temperature, then washed and developed as described above.
(§2) In order to test whether the antigen specificity of the parental mouse antibody LFU720 was retained in the final Humaneered™ IgGs, LGT209, LGT210 and LGT211, binding of the antibodies to a panel of human and mouse antigens (as well as human PCSK9) was tested in an ELISA assay.

hNotch-3 NRR = target: T2, hNotch-3 NRR (human, UniProt Q9UM47)
T2 construct: panel antigen of the specificity ELISA
T2 sequence (antigen, looked up): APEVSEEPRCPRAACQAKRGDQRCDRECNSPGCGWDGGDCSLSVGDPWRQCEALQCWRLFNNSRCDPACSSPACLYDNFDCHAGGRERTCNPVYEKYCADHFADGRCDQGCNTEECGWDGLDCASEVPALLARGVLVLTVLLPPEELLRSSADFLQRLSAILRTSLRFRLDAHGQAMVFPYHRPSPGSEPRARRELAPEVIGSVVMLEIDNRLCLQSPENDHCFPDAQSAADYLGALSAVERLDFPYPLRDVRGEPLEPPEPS
Procedure: as §1, §2

hDDR1 = target: T3, hDDR1 (human, UniProt Q08345)
T3 construct: panel antigen of the specificity ELISA
T3 sequence (Q08345 21-416 limits assumed): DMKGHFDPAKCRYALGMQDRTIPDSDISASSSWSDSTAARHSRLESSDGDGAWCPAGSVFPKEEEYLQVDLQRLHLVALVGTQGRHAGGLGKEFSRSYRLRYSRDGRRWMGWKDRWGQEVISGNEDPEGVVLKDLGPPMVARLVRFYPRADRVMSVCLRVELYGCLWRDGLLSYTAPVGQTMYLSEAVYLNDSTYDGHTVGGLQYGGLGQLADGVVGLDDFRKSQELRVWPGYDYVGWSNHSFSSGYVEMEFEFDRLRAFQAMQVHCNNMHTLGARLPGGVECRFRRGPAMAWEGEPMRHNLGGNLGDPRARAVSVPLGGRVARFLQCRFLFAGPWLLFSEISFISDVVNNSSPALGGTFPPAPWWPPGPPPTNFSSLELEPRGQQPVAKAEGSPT
Procedure: as §1, §2

hAgr2 = target: T4, hAgr2 (human, UniProt O95994)
T4 construct: panel antigen of the specificity ELISA
T4 sequence (antigen, looked up): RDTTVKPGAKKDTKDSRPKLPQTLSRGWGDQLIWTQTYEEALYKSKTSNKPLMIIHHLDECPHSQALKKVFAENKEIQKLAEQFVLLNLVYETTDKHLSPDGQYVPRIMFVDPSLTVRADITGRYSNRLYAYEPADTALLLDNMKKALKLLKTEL
Procedure: as §1, §2

hTrkB = target: T5, hTrkB (human, UniProt Q16620)
T5 construct: panel antigen of the specificity ELISA
T5 sequence (Q16620 32-430 limits assumed): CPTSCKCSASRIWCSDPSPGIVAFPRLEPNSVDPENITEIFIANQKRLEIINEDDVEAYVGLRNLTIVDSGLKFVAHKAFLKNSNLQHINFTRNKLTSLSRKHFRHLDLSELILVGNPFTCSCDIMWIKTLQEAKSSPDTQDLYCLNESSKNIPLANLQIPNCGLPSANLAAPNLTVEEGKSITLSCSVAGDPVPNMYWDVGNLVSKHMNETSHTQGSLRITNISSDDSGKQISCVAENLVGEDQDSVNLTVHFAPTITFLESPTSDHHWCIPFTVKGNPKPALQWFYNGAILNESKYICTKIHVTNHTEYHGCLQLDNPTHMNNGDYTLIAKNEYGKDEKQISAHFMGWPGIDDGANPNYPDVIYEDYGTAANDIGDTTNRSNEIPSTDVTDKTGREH
Procedure: as §1, §2

hIL-12RB1 = target: T6, hIL-12RB1 (human, UniProt P42701)
T6 construct: panel antigen of the specificity ELISA
Procedure: as §1, §2

hβ-Klotho = target: T7, hβ-Klotho (human, UniProt Q86Z14)
T7 construct: panel antigen of the specificity ELISA
T7 sequence (antigen, looked up): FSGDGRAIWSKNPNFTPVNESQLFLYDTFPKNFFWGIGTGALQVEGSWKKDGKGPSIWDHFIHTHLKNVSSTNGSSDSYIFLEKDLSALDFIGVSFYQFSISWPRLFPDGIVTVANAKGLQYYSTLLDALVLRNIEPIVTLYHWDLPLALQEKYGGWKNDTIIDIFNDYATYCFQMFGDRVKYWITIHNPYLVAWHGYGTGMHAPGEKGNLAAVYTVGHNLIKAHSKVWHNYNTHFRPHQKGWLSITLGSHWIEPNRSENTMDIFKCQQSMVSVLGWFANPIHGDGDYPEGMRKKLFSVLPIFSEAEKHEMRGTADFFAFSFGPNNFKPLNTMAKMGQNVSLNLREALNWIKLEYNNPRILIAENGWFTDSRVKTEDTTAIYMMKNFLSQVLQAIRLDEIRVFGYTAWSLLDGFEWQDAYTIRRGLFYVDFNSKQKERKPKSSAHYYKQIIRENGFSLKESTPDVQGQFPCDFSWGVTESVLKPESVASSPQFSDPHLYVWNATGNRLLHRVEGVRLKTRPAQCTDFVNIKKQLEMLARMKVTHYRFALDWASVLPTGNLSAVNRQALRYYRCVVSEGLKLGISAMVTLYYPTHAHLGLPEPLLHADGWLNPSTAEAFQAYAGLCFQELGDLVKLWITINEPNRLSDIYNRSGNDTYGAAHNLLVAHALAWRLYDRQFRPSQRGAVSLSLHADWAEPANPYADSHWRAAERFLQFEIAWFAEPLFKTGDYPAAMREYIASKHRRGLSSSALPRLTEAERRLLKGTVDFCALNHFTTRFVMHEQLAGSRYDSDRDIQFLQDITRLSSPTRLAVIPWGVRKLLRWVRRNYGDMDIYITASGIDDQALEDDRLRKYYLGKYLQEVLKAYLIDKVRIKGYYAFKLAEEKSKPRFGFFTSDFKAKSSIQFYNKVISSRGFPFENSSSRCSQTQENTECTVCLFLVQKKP
Procedure: as §1, §2

hRspo-2 = target: T8, hRspo-2 (human, UniProt Q6UXX9)
T8 construct: panel antigen of the specificity ELISA
T8 sequence (Q6UXX9 22-243 limits assumed): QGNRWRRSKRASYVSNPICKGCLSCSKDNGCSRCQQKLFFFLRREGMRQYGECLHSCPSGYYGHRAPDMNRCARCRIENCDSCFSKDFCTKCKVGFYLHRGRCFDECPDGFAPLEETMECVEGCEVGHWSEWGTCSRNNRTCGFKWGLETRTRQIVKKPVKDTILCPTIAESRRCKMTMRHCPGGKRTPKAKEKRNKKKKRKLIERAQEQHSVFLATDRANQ
Procedure: as §1, §2

Measured: binding result

B1: NVP-LGT211 (antibody, human IgG1, V domains shown)
VH: QVQLVQSGAEVKKPGASVKVSCKASGYTFSTMYMSWVRQAPGQGLEWMGRIDPANEHTNYAQKFQGRVTMTRDTSISTAYMELSRLTSDDTAVYYCARSYYYYAMDYWGQGTLVTVSS
VL: QIVLTQSPATLSVSPGERATLSCRASQSVSYMHWYQQKPGQAPRLLIYGVFRRATGIPDRFSGSGSGTDFTLTIGRLEPEDFAVYYCLQWSSDPPTFGQGTKLEIKR
notes: Silent human IgG1 kappa; also called pSR74 (Vh) + pJG10 (Vk); pSR074 + pJG10
no binding (tested: 2 µg/mL): hGITR | hNotch-3 NRR | hDDR1 | hAgr2 | hTrkB | hIL-12RB1 | hβ-Klotho | hRspo-2

B2: NVP-LFU720 (antibody, V domains shown)
VH: EVQLQQSGAELMKPGASVKLSCTASGFNIKDMYMSWVRQRPEQGLEWIGRIDPANGHTNYDPKFQAKATITTDTSSKTAYLHLSSLTSEDTAVYYCARSYYYYAMDYWGQGTSVTVSS
VL: QIVLTQSPAIMSASPGEKVTMTCSASSSVSYMHWYQQKPGSSPRLWIYLTFNLASGVPARFSGSGSGTSYSLSISSMEAEDAATYYCLQWSSDPPTFGSGTKLEIK
notes: Murine anti-human Pcsk9 IgG1-kappa monoclonal antibody from a hybridoma; also called 5P20; NVP-LFU720-AX-1
no binding (tested: 2 µg/mL): hGITR | hNotch-3 NRR | hDDR1 | hAgr2 | hTrkB | hIL-12RB1 | hβ-Klotho | hRspo-2
